In patent publication US6335019B1, “Methods for treating sensitivity to protein allergen using peptides which include a T cell epitope recognized by a T cell receptor specific for the protein allergen” (Immulogic Pharmaceutical Corp., priority 1989, dated 2002):

Key:
[1] = system: T cells from patients allergic to ragweed; assay: T cell proliferation of ragweed allergic patient T cells to ragweed proteins and recombinant lysates (tritiated thymidine); type: cell-based, human
Excerpt: T cells from patients allergic to ragweed, previously stimulated with a mixed ragweed pollen extract, can recognize and proliferate in response to pollen extract, ragweed skin test reagent (RWST), affinity purified Amb a I protein and crude bacterial lysates containing recombinant Amb a I gene products IA, IB and IC (Table 4). […] The use of crude bacterial lysates as antigens precludes a firm conclusion form the negative responses, since the relative levels of recombinant proteins in lysate have not been determined.
Peripheral blood mononuclear cells (PBMC) were purified from 60 ml of heparinized blood from ragweed-allergic patients. PBMC were subsequently treated as described below, although in individual cases, the length of time of cultivation with IL-2 and IL-4 and the specific ragweed proteins and peptides used for stimulation varied. As an example, ten ml of patient 222 PBMC at 10^6/ml were cultured at 37° C. for 7 days in the presence of 20 micrograms aqueous ragweed pollen extract/ml RPMI-1640 supplemented with 5% pooled human AB serum. Viable cells were purified by Ficoll-Hypaque centrifugation and cultured for three weeks at 5 units recombinant human IL-2/ml and 5 units recombinant human IL-4/ml. The resting T cells were then restimulated (secondary) with 20 micrograms aqueous ragweed pollen extract/ml at a density of 2×10^5 cells/ml in the presence of X-irradiated (3500 RADS) autologous PBMC (5×10^5/ml) for three days, purified by Ficoll-Hypaque centrifugation and grown in 5 units IL-2/ml and 5 units IL-4/ml for two weeks. For assay, 2×10^4 resting secondary T cells were restimulated (tertiary) in the presence of 5×10^4 X-irradiated (3500 RADS) autologous PBMC or 2×10^4 autologous Epstein-Barr virus-transformed B cells (20,000 RADS) with various concentrations of allergen or their fragments in a volume of 200 microliters in 96-well round bottom assay plates for 3 days. Each well then received 1 microCurie tritiated (methyl) thymidine for 16 hours. The counts incorporated were collected onto glass fiber filters and processed for liquid scintillation counting. […] Antigens used: IPC aqueous pollen extract (pollen), Hollister-Stier ragweed skin test extract (RWST), ALK cat epithelium skin test extract (CST), affinity 4B5/B7 antibody purified (dialyzed) Amb a I (B7), and chromatographically purified Amb a I and (Amb a I). Medium only control is shown as a line with no symbol. Alternatively, PBMC were sometimes carried only into a secondary assay (as outlined above for a tertiary assay) with 20 micrograms aqueous pollen extract 7 days, followed by culture in 5 units IL-2/ml and 5 units IL-4/ml for 2-3 weeks. […] Secondary and tertiary assays of a panel of ragweed allergic patients were performed using synthetic peptides derived from the sequences of various ragweed pollen proteins. […] Another four peptides (RAE15.6, RAE3.D, RAE28.1, RAE26.15) which are also derived from the sequence of the same three cDNA's could stimulate 35 to 58% of the patients' T cells. One peptide (RAE4) which is derived from the cDNA of IPC Clone 5 could also stimulate 25% of the patients' T cells. […] By this method it is possible to identify novel therapeutic and diagnostics entities for use in the treatment and the diagnosis of ragweed allergy.

[2] = system: human IgE (ragweed allergic patient sera); assay: SDS-PAGE Western blot (and ELISA) of ragweed allergic patient IgE binding to pollen, affinity purified and recombinant Amb a I / Amb a II; parameters: key to IgE binding, summarized Western blot data: −: no signal over background; +−: barely discernable over background; +: clearly positive; ++: strongly positive; +++: highly positive

B1: Amb a IB: E. coli expressed recombinant Amb a IB, used as crude bacterial lysate (protein)
chain: LYFTLALVTLLQPVRSAEDVEEFLPSANETRRSLKACEAHNIIDKCWRCKADWANNRQALADCAQGFAKGTYGGKHGDVYTVTSDKDDDVANPKEGTLRFAAAQNRPLWIIFKRNMVIHLNQELVVNSDKTIDGRGVKVNIVNAGLTLMNVKNIIIHNINIHDIKVCPGGMIKSNDGPPILRQQSDGDAINVAGSSQIWIDHCSLSKASDGLLDITLGSSHVTVSNCKFTQHQFVLLLGADDTHYQDKGMLATVAFNMFTDHVDQRMPRCRFGFFQVVNNNYDRWGTYAIGGSSAPTILSQGNRFFAPDDIIKKNVLARTGTGNAESMSWNWRTDRDLLENGAIFLPSGSDPVLTPEQKAGMIPAEPGEAVLRLTSSAGVLSCHQGAPC
- T cell recognition and proliferation (in words) ([1]; T cells previously stimulated with mixed ragweed pollen extract, summary of Table 4): proliferate
- Stimulatory response of human T cells (proliferation compared to medium control) ([1]; patient 151 2° (secondary assay)): + (2-4 fold)
- Stimulatory response of human T cells (proliferation compared to medium control) ([1]; patient 274 2° (secondary assay)): + (2-4 fold)
- Stimulatory response of human T cells (proliferation compared to medium control) ([1]; patient 295 2° (secondary assay)): + (2-4 fold)
- Stimulatory response of human T cells (proliferation compared to medium control) ([1]; patient 296 2° (secondary assay)): +++ (>10 fold)
- Stimulatory response of human T cells (proliferation compared to medium control) ([1]; patient 314 2° (secondary assay)): +++ (>10 fold)
- Stimulatory response of human T cells (proliferation compared to medium control) ([1]; patient 316 2° (secondary assay)): ++ (4-10 fold)
- Stimulatory response of human T cells (proliferation compared to medium control) ([1]; patient 319 2° (secondary assay)): (+) (2 fold)
- Stimulatory response of human T cells (proliferation compared to medium control) ([1]; patient 320 2° (secondary assay)): + (2-4 fold)
- Stimulatory response of human T cells (proliferation compared to medium control) ([1]; patient 321 2° (secondary assay)): ++ (4-10 fold)
- IgE binding, summarized Western blot data ([2]; patient 151): −
- IgE binding, summarized Western blot data ([2]; patient 222): +−
- IgE binding, summarized Western blot data ([2]; patient 291): −
- IgE binding, summarized Western blot data ([2]; patient 295): +
